Experimental data as given in the supplement of paper PMC10567573.
± gives the standard deviation.

Experiment: protein stability index of a GFP-peptide fusion (GPS, HEK-293T) (PSI 1-6); higher = more stable
[1] = treatment: DMSO, c terminus: a fixed tail appended
[2] = treatment: MLN4924 1 uM, 8 h, c terminus: a fixed tail appended
[3] = treatment: DMSO, c terminus: native
[4] = treatment: MLN4924 1 uM, 8 h, c terminus: native
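Note: 24-mer peptide tiles fused after GFP, lentivirally expressed, FACS-sorted into six equal bins by GFP/DsRed ratio, decoded by Illumina sequencing, PSI is the read-weighted mean bin number.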

Sequence | protein stability index [1] | protein stability index [2] | protein stability index [3] | protein stability index [4]
QYLALPERAELAASLGLTQTQVKI [DLX1] | 2.95 ± 0.33 | 3.03 ± 0.22 | – | –
RADSFKVSYQLADGGEPQSVQVDG [TNXB] | 4.89 ± 0.15 | 5.01 ± 0.22 | – | –
RAEGTDIPTVKPLKPRPEPPKKPS [ZC2HC1A] | 5.38 ± 0.18 | 5.4 ± 0.27 | – | –
RAPHKESTLPRSGSSGGQQPSGMK [CHCHD6] | 4.96 ± 0.58 | 5.05 ± 0.46 | – | –
RAYDLLRAASENSQDALRVVSTSG [IKZF1] | 2.62 ± 0.37 | 2.84 ± 0.31 | – | –
RAYFMSDTREEKRFLGEGHHRVQE [CHGB] | 3.87 ± 0.28 | 3.89 ± 0.06 | – | –
RDAIEALCRRLNTLNKCAVMKLEI [DLC1] | 2.13 ± 0.49 | 2.54 ± 0.17 | – | –
RDHVETELLKEAELIRNIQELLKR [TEKT4] | 2.74 ± 0.16 | 3.01 ± 0.36 | – | –
RDLKPENILVTSGGTVKLADFGLA [CDK4] | 3.31 ± 0.44 | 3.33 ± 0.27 | – | –
RDRFKSFQRRNMIEPRERAKFKRK [NOP53] | 4.11 ± 0.47 | 4.54 ± 0.35 | – | –
RDSLSHLVPALRLPGRKLVSSAVS [INTS4] | 3.04 ± 0.12 | 3.21 ± 0.24 | – | –
RDYVRLFGIKCAKCQVGFSSSDLV [ISL2] | 2.51 ± 0.52 | 2.25 ± 0.23 | – | –
REEEERERLQKEEEKRRREEEERL [ACBD3] | 5.5 ± 0.35 | 5.74 ± 0.21 | – | –
REKPFKCQECGKTFRVSSDLIKHQ [ZNF75A] | 4.73 ± 0.19 | 4.72 ± 0.32 | – | –
RFLVGMMNGGMSLVAFVLLNECVG [SLC22A15] | 3.25 ± 0.35 | 2.9 ± 0.38 | – | –
RGPLNSDRSDYFAAWGARVFSFGK [TRIM43] | 2.79 ± 0.22 | 2.76 ± 0.22 | – | –
RGREAGPPQPMVPLAVENQAGGEG [PBXIP1] | 5.27 ± 0.38 | 5.25 ± 0.16 | – | –
RIASRAIDNAADLLIFGKELSAIG [SNX8] | 2.34 ± 0.28 | 2.44 ± 0.38 | – | –
RIRSYLREVSSYPSTVGAEAQEEF [DFFB] | 3.33 ± 0.16 | 3.58 ± 0.29 | – | –
RITKDNRRHCQACRLKRCVDIGMM [VDR] | 2.42 ± 0.36 | 2.68 ± 0.29 | – | –
RLAELLLLETDAGPAASEGAEQPP [GADD45A] | 3.26 ± 0.22 | 3.6 ± 0.56 | – | –
RLASYLDKVRALEEANADLEVKIH [KRT15] | 2.33 ± 0.15 | 2.67 ± 0.22 | – | –
RLGQRQPPPSEPTQGPEIVPRGAG [DNAJC4] | 4.83 ± 0.15 | 4.84 ± 0.12 | – | –

Sequence | protein stability index [1] | protein stability index [2] | protein stability index [3] | protein stability index [4]
RLNAYRGYCSNQLAAKALLDQKKQ [NET1] | 3.25 ± 0.25 | 3.25 ± 0.26 | – | –
RLVNEYVELVNAACNFEPHESFFS [ZER1] | 2.34 ± 0.4 | 2.1 ± 0.48 | – | –
RMLFWACSTNKPEGYRVSQALREN [FAF2] | 2.27 ± 0.16 | 2.46 ± 0.18 | – | –
RPGATAVPTPLTNVQILLPVGEPV [FCHO1] | 3.4 ± 0.26 | 3.33 ± 0.2 | – | –
RPGPSASAASSAAAGEPLECPTCG [RNF208] | 5.3 ± 0.2 | 5.3 ± 0.28 | – | –
RPHGIFGPRDPQLVPILIEAARNG [NSDHL] | 2.91 ± 0.34 | 3.04 ± 0.24 | – | –
RPHVHKQTEKTTRVRTVLNEKQLH [ISL2] | 4.21 ± 0.098 | 4.39 ± 0.24 | – | –
RPPFETTNLKETYRCIREARYTMP [PLK2] | 2.72 ± 0.47 | 2.31 ± 0.26 | – | –
RPQSAQSSFPPSPGPSPDVQLATL [AUP1] | 4.34 ± 0.44 | 4.34 ± 0.47 | – | –
RPRRRDGPEHATRLNGTAKGERRR [DVL3] | 5.06 ± 0.38 | 5.08 ± 0.42 | – | –
RPSFNRTPIPWLSSGEPVDYNVDI [MYOZ1] | 3.57 ± 0.5 | 3.66 ± 0.39 | – | –
RQGLKYCLPLTFCIHTGLSQYIAV [FBXO3] | 3.08 ± 0.45 | 2.87 ± 0.52 | – | –
RQKEVDFCISLLRERFMECLMIGR [INTS3] | 2.52 ± 0.74 | 2.28 ± 0.13 | – | –
RQLLRDFQSRLPYQYLHYALFKAN [P3H4] | 2.49 ± 0.29 | 2.16 ± 0.43 | – | –
RREVAKTVFCLVVIFALCWFPLHL [EDNRA] | 2.93 ± 0.19 | 2.53 ± 0.27 | – | –
RRHLQFWKSHLRNVQRPLLQAPFL [RHOBTB2] | 2.29 ± 0.38 | 2.21 ± 0.3 | – | –
RRHTSMERYDPNIDQWSMLGDMQT [KLHL12] | 3.86 ± 0.27 | 3.82 ± 0.26 | – | –
RRKEEEVQQQKLAEERRRQNLQEE [FAF2] | 5.56 ± 0.18 | 5.45 ± 0.37 | – | –
RRKPDPPKDENERSTCNVVQDEFL [DLC1] | 5.27 ± 0.1 | 5.33 ± 0.13 | – | –
RRPRRVEAERPHSLIGVIRETVL [FAM189A2] | – | – | 3.39 ± 0.12 | 3.42 ± 0.22
RRSPRPDHPGTPPHKTFRKLRLFD [WEE1] | 3.4 ± 0.078 | 3.71 ± 0.34 | – | –
RRTLQGLEIELQSQLSMKAGLENT [KRT13] | 3.4 ± 0.24 | 3.34 ± 0.37 | – | –
RRVLPCIPSEEWPNPPTLQEAGLS [FAF2] | 3.9 ± 0.38 | 3.79 ± 0.18 | – | –

Sequence | protein stability index [1] | protein stability index [2] | protein stability index [3] | protein stability index [4]
RSHSREPRAERKCPRIAPADSGRY [ELOA2] | 4.093 ± 0.032 | 4.25 ± 0.47 | – | –
RSLLGYDPQILQMLKEEHQIILEN [RAD54B] | 2.94 ± 0.19 | 3.11 ± 0.21 | – | –
RSSVSRVFDCLKDGMRNKETLEGR [MED27] | 4.27 ± 0.34 | 4.38 ± 0.47 | – | –
RTRPRKPIRCGEVLFAVGGWCSGD [KLHL20] | 2.39 ± 0.28 | 2.17 ± 0.33 | – | –
RTRRRLSRNRDPGRLILSTIRLRP [PWWP2B] | 4.41 ± 0.45 | 4.32 ± 0.21 | – | –
RTYFHEFGHVMHQICAQVSFFFPP [NLN] | 2.43 ± 0.43 | 3.41 ± 0.054 | – | –
RVLDGKEAKAVGLISHVLEQNQEG [AUH] | 4.53 ± 0.38 | 4.95 ± 0.088 | – | –
RVPSFESFEDDCSQSLCLNKPTMS [ETS2] | 4.6 ± 0.16 | 4.55 ± 0.16 | – | –
SAASVYAGAGGSGSRISVSRSTSF [KRT18] | 3.66 ± 0.066 | 3.59 ± 0.28 | – | –
SAEINQDLNIQLLKDGYRLDEIPD [FAM219A] | 4.91 ± 0.062 | 5.08 ± 0.18 | – | –
SARCVVSFNILVEDRVKLFGIEIE [PCDHGA10] | 2.12 ± 0.68 | 1.95 ± 0.27 | – | –
SARFWIPGEPNNAGNNEHCGNIKA [CD207] | 4.03 ± 0.47 | 4.18 ± 0.41 | – | –
SCHGYTLPGACNIPANVSNCNWFC [KRT33B] | 2.53 ± 0.52 | 2.42 ± 0.5 | – | –
SDAWTYCISKNEWIQFNHPYTEKP [KLHDC2] | 2.34 ± 0.18 | 2.37 ± 0.26 | – | –
SDSLLQSWNSQSSLLDVQRVPSFE [ETS2] | 3.92 ± 0.3 | 3.76 ± 0.17 | – | –
SEAKSHSSADDASAWSNIQEAPLQ [FAN1] | 5.29 ± 0.31 | 5.04 ± 0.46 | – | –
SEEGSWAQTLAYGDMNHEWIGNEW [PPFIA4] | 3.89 ± 0.41 | 3.8 ± 0.28 | – | –
SEGEAMEICSEPVAASPAPAGERR [ZNF511] | 5.38 ± 0.28 | 5.22 ± 0.27 | – | –
SEGRRVSFGVDEEERVRVLQGVRL [CHCHD6] | 4.38 ± 0.19 | 4.38 ± 0.3 | – | –
SELQREMEALAAETNLLLAQKQRL [TEKT4] | 4 ± 0.53 | 4.2 ± 0.13 | – | –
SENKIVGIGYNGMPNGCSDDVLPW [DCTD] | 3.46 ± 0.35 | 3.56 ± 0.15 | – | –
SESSPSDFSVSLKASGKNKHFKVQ [NCK2] | 4.39 ± 0.18 | 4.33 ± 0.17 | – | –
SEVSFEGAYGNLKRLYDKAAKMYH [SMG5] | 2.44 ± 0.29 | 2.23 ± 0.29 | – | –

Sequence | protein stability index [1] | protein stability index [2] | protein stability index [3] | protein stability index [4]
SFFLQIYLIMIFLGLYINFRHLYK [HACD3] | 2.79 ± 0.2 | 2.52 ± 0.041 | – | –
SFRENWQRAWVRALNEQACRNGSS [C2CD2L] | 2.7 ± 0.24 | 2.45 ± 0.49 | – | –
SGGELFDFLAEKESLTEDEATQFL [DAPK3] | 4.84 ± 0.19 | 4.96 ± 0.47 | – | –
SGISFPSVVDHPMPEERASKYENY [HESX1] | 4.25 ± 0.32 | 4.22 ± 0.3 | – | –
SGPQPRLPPCLLPLSPPTAPDRAT [TRIB3] | 4.48 ± 0.27 | 4.61 ± 0.28 | – | –
SGSQRHMVGQKDSVILSVKFSPFG [TLE6] | 2.2 ± 0.27 | 2.49 ± 0.22 | – | –
SHCDSPSPQEDGQIMFDVEMHTSR [BNIP3L] | 4.79 ± 0.31 | 4.8 ± 0.38 | – | –
SHQNLRVDDLSVEWDAMGGKVQDI [FSD1] | 4.49 ± 0.19 | 4.47 ± 0.28 | – | –
SHRAAGSGVSDYDYLDLDKMSLYS [TRIM9] | 3.4 ± 0.21 | 3.44 ± 0.17 | – | –
SIGIDNLGLKLEENLQETHSAVL [SLC35F2] | – | – | 4.34 ± 0.31 | 4.53 ± 0.19
SIIILLELAILGGLVYYKFFRSH [VTI1B] | – | – | 2.78 ± 0.27 | 2.63 ± 0.45
SITEMFGEFRTGKTQICHTLAVTC [RAD51] | 2.59 ± 0.33 | 2.05 ± 0.48 | – | –
SKIGFGILLSKEPDGVWAYNRGEH [SMAD6] | 2.43 ± 0.25 | 2.71 ± 0.15 | – | –
SKLKGAAVKLADFGLAIEVEGEQQ [CAMK2A] | 4.06 ± 0.11 | 4.4 ± 0.31 | – | –
SKQTEKDPGVQELEALIDTIQKQL [EFHC1] | 3.83 ± 0.28 | 3.86 ± 0.3 | – | –
SKTVTSTMLGVFREDPKTREEFLT [GCH1] | 4.12 ± 0.1 | 4.11 ± 0.24 | – | –
SKYADLSDAANRNHEALRQAKQEM [PRPH] | 4.77 ± 0.064 | 4.89 ± 0.14 | – | –
SKYCYGPQGSRSPYIPPHAALCLE [FKBP8] | 2.46 ± 0.54 | 2.74 ± 0.3 | – | –
SLCKVFGAHKDCQVAPLTHVFQRQ [TRIM55] | 2.41 ± 0.35 | 2.66 ± 0.2 | – | –
SLIGHLQTLSPDMQGAYCTFPASV [DUSP5] | 2.07 ± 0.35 | 2.2 ± 0.38 | – | –
